Broadly, the Km is the concentration of substrate that gives half-maximal velocity. In general, kcat refers to the maximal rate divided by the concentration of active sites. Broadly, the kcat/Km is the turnover number divided by the Michaelis constant.

This note sets out measurements from publication PMC8191317, “Structural and functional analysis of lignostilbene dioxygenases from Sphingobium sp. SYK-6” (The Journal of Biological Chemistry, 2021).

What all share (test): O2 electrode (oxygraph) steady-state kinetics
Common to all, as to format: biochemical, Sphingobium sp. SYK-6
Conditions in all cases: air-saturated HEPES I = 0.1 M, pH 7.5, 25 °C

Substrate in data set [1]: COc1cc(/C=C/c2cc(/C=C/C(=O)O)cc(OC)c2O)ccc1O
An excerpt:
(§1) O2 electrode (oxygraph) steady-state kinetics on LSD4

Substrate in data set [2]: COc1cc(/C=C/c2ccc(O)c(OC)c2)ccc1O
Text: as §1

Substrate in data set [3]: COc1cc(/C=C/c2ccc(O)cc2)cc(OC)c1
Text: as §1

Substrate in data set [4]: Oc1ccc(/C=C/c2cc(O)cc(O)c2)cc1
Text: as §1

Positions count from the first letter of the chain named. Names may count otherwise.

B1: LSD4 (Sphingobium sp. SYK-6) (protein)
chain: MAHFPDTPAFTGFNAPSRIECDIPNLVHEGTIPPELNGAFFRVQPDPQFPPRLGDDISFNGDGMITRFHIHDGQCDIKQRWAKTNKWKLENAAGKALFGSYRNPLTDDESVKGEYRSTANTNAFVFAGKLWAMKEDSPSLTMDPATMETFGFEKFGGKMTGQTFTAHPKVDPLTGNMVAIGYAASGLCTDDVCLYEISPDGELIYEAWFKVPYYCMMHDFGVTKDYLVLHIVPSIGSWDRLEKGLPHFGFDTTLPVYLGIIPRRADLKQEDIRWFKRENCFASHVMNAFQEGTKVHVDVPEAENNMFPFFPDVHGAPFNPQQAMSRLTRWTVDMASNSDEFDSVTRLTETAGEFPRIDDRMTGLPYRYGWMLEMDMKRPVELKGGSAGGFLMNCLFLKDHQTGAEQHWWCGPTSSLQEPAFIPRSKDAPEGDGWIVQVCNRLADHKSDLLIFEALDIEKGPVATVHLPFALRFGLHGNWANAEEIGLAA
notes: residues 2-489 modelled; Fe2+ enzyme, Co-LSD4 for complexes
Turning to B1, the Km in data set [1] was determined as 12 ± 1 µM; in data set [2] it was 13 ± 1 µM; in data set [3], 15 ± 2 µM; in data set [4] it was 22 ± 2 µM. Besides, the kcat in data set [1] is 11 ± 1 s⁻¹; in data set [2], 18 ± 1 s⁻¹; in data set [3], 1.9 ± 0.1 s⁻¹; in data set [4] it was 2.1 ± 0.1 s⁻¹. Besides, the kcat/Km in data set [1] was determined as 900000 ± 100000 M⁻¹ s⁻¹; in data set [2] it was 1.4e+06 ± 100000 M⁻¹ s⁻¹; in data set [3], 130000 ± 10000 M⁻¹ s⁻¹; in data set [4] it was 90000 ± 10000 M⁻¹ s⁻¹.

B2: LSD4 (Sphingobium sp. SYK-6; S283F) (protein)
chain: B1 chain with S283F
notes: as for B1
Consider B2, for which, in data set [1], the Km amounted to 2.7 ± 0.5 µM, the kcat came out at 0.035 ± 0.001 s⁻¹ and the kcat/Km came out at 13000 ± 5000 M⁻¹ s⁻¹. In addition, in data set [2], the Km was determined as 8.5 ± 0.7 µM, the kcat came to 0.14 ± 0.01 s⁻¹ and the catalytic efficiency (kcat/Km) turned out to be 16000 ± 2000 M⁻¹ s⁻¹.

B3: LSD4 (Sphingobium sp. SYK-6; S283A) (protein)
chain: B1 chain with S283A
notes: as for B1
For the protein B3, in data set [1], the Km worked out at 4.6 ± 0.5 µM, the kcat was determined as 4.1 ± 0.1 s⁻¹ and the kcat/Km came out at 900000 ± 100000 M⁻¹ s⁻¹. For the same protein, in data set [2], the Km is 10 ± 1 µM, the kcat came out at 15.3 ± 0.4 s⁻¹ and the kcat/Km was found to be 1.5e+06 ± 100000 M⁻¹ s⁻¹.
